{"source": "the supplement of paper PMC10126150", "note": "± gives the standard deviation of the averaged measurements.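 Also: ATP exposure 15 min at 22 °C before imaging.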", "data": [{"test_system": "ATP", "experiment": "switch fluorescence ratio, 500 uM ATP over buffer (Cy3 cluster intensity, sum of 5 cycles each) (fold (ratio)); higher = stronger signal-on switching upon ATP binding; sequences stand for … in TCGTCGGCAGCGTCAGATGTGTATAAGAGACAGTTTTTTTTTTTTTTTTTTTTTTTTT…TC", "conditions": "aptamer strand: ATP DNA aptamer (quencher-CACCTGGGGGAGTATTGCGGAGGAAGG + anchor), 100 nM annealed; ATP concentration: 500 uM", "in_short": "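Clusters carrying Cy3-labelled switching strands on a modified Illumina MiSeq flow-cell were annealed to 100 nM quencher-labelled ATP aptamer and imaged in selection buffer. They were imaged again after 15 min with 500 uM ATP at 22 °C, over five buffer/ATP cycles with NaOH stripping and re-annealing in between. For each cluster, the fluorescence ratio is the summed Cy3 intensity of the target cycles divided by that of the buffer cycles, averaged per switch-domain sequence. Clusters outside 100-1000 RFU were left out.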", "values": [{"sequence": "TTTATAGGCT", "switch fluorescence ratio": "1.01 ± 0.047"}, {"sequence": "TTTATATGTC", "switch fluorescence ratio": "1.12 ± 0.23"}, {"sequence": "TTTATATTAT", "switch fluorescence ratio": "0.993 ± 0.043"}, {"sequence": "TTTATATTTC", "switch fluorescence ratio": "0.99 ± 0.046"}, {"sequence": "TTTATCACCT", "switch fluorescence ratio": "1.14 ± 0.021"}, {"sequence": "TTTATCACGT", "switch fluorescence ratio": "0.975 ± 0.0077"}, {"sequence": "TTTATCATGC", "switch fluorescence ratio": "0.987 ± 0.019"}, {"sequence": "TTTATCCAAT", "switch fluorescence ratio": "0.984 ± 0.037"}, {"sequence": "TTTATCCGAC", "switch fluorescence ratio": "1.15 ± 0.027"}, {"sequence": "TTTATCCGAG", "switch fluorescence ratio": "1.04 ± 0.042"}, {"sequence": "TTTATCCGGG", "switch fluorescence ratio": "0.99 ± 0.05"}, {"sequence": "TTTATCGCCG", "switch fluorescence ratio": "0.974 ± 0.022"}, {"sequence": "TTTATCGGCT", "switch fluorescence ratio": "1.06 ± 0.078"}, {"sequence": "TTTATCGGGG", "switch fluorescence ratio": "0.988 ± 0.011"}, {"sequence": "TTTATCGGTG", "switch fluorescence ratio": "0.995 ± 0.035"}, {"sequence": "TTTATCTATT", "switch fluorescence ratio": "1 ± 0.012"}, {"sequence": "TTTATCTTCC", "switch fluorescence ratio": "2.41 ± 0.065"}, {"sequence": "TTTATCTTCG", "switch fluorescence ratio": "1.04 ± 0.017"}, {"sequence": "TTTATGAAGA", "switch fluorescence ratio": "0.985 ± 0.027"}, {"sequence": "TTTATGAATT", "switch fluorescence ratio": "1.03 ± 0.019"}, {"sequence": "TTTATGACAT", "switch fluorescence ratio": "0.971 ± 0.029"}, {"sequence": "TTTATGAGCA", "switch fluorescence ratio": "0.998 ± 0.035"}, {"sequence": "TTTATGAGGT", "switch fluorescence ratio": "0.999 ± 0.02"}, {"sequence": "TTTATGCGGG", "switch fluorescence ratio": "1.02 ± 0.048"}, {"sequence": "TTTATGCTTG", "switch fluorescence ratio": "0.974 ± 0.044"}, {"sequence": "TTTATGGAGA", "switch fluorescence ratio": "0.998 ± 0.015"}, {"sequence": "TTTATGGCAT", "switch fluorescence ratio": "1.02 ± 0.027"}, {"sequence": "TTTATGGCCC", "switch fluorescence ratio": "1.01 ± 0.064"}, {"sequence": "TTTATGGGGT", "switch fluorescence ratio": "1.01 ± 0.028"}, {"sequence": "TTTATGGTGG", "switch fluorescence ratio": "1.01 ± 0.013"}, {"sequence": "TTTATGTAGG", "switch fluorescence ratio": "0.9887 ± 0.0044"}, {"sequence": "TTTATGTATG", "switch fluorescence ratio": "1.02 ± 0.034"}, {"sequence": "TTTATTAATT", "switch fluorescence ratio": "1 ± 0.029"}, {"sequence": "TTTATTAGCT", "switch fluorescence ratio": "1.02 ± 0.043"}, {"sequence": "TTTATTAGGG", "switch fluorescence ratio": "0.975 ± 0.021"}, {"sequence": "TTTATTATTG", "switch fluorescence ratio": "0.989 ± 0.035"}, {"sequence": "TTTATTCCTT", "switch fluorescence ratio": "1.02 ± 0.018"}, {"sequence": "TTTATTCTAT", "switch fluorescence ratio": "1.02 ± 0.011"}, {"sequence": "TTTATTGAGT", "switch fluorescence ratio": "0.978 ± 0.048"}, {"sequence": "TTTATTGGAA", "switch fluorescence ratio": "0.9858 ± 0.0091"}, {"sequence": "TTTATTGTGG", "switch fluorescence ratio": "0.9934 ± 0.0071"}, {"sequence": "TTTATTTATG", "switch fluorescence ratio": "1.007 ± 0.0065"}, {"sequence": "TTTATTTATT", "switch fluorescence ratio": "0.998 ± 0.021"}, {"sequence": "TTTATTTCCA", "switch fluorescence ratio": "0.996 ± 0.03"}, {"sequence": "TTTATTTGCT", "switch fluorescence ratio": "0.9809 ± 0.0098"}, {"sequence": "TTTATTTGTT", "switch fluorescence ratio": "1 ± 0.021"}, {"sequence": "TTTATTTTG", "switch fluorescence ratio": "0.95563 ± 0.00051"}, {"sequence": "TTTATTTTGG", "switch fluorescence ratio": "0.995 ± 0.053"}, {"sequence": "TTTCAAACCT", "switch fluorescence ratio": "1.57 ± 0.64"}, {"sequence": "TTTCAAAGAT", "switch fluorescence ratio": "1.22 ± 0.41"}, {"sequence": "TTTCAAAGGC", "switch fluorescence ratio": "1.17 ± 0.2"}, {"sequence": "TTTCAAATGG", "switch fluorescence ratio": "0.975 ± 0.028"}, {"sequence": "TTTCAACTAC", "switch fluorescence ratio": "1.25 ± 0.23"}, {"sequence": "TTTCAAGATT", "switch fluorescence ratio": "0.998 ± 0.015"}, {"sequence": "TTTCAAGGGA", "switch fluorescence ratio": "0.9904 ± 0.0048"}, {"sequence": "TTTCAATTTG", "switch fluorescence ratio": "1.04 ± 0.049"}, {"sequence": "TTTCACGCAA", "switch fluorescence ratio": "3.98 ± 1.1"}, {"sequence": "TTTCACTTTT", "switch fluorescence ratio": "0.991 ± 0.032"}, {"sequence": "TTTCAGAAGG", "switch fluorescence ratio": "1.01 ± 0.023"}, {"sequence": "TTTCAGACAG", "switch fluorescence ratio": "0.9921 ± 0.0014"}, {"sequence": "TTTCAGCTGG", "switch fluorescence ratio": "0.997 ± 0.027"}, {"sequence": "TTTCAGGTAA", "switch fluorescence ratio": "0.988 ± 0.017"}, {"sequence": "TTTCAGGTCG", "switch fluorescence ratio": "1.02 ± 0.088"}, {"sequence": "TTTCAGGTTG", "switch fluorescence ratio": "0.982 ± 0.041"}, {"sequence": "TTTCAGTGGT", "switch fluorescence ratio": "0.986 ± 0.024"}, {"sequence": "TTTCAGTGTT", "switch fluorescence ratio": "1.05 ± 0.099"}, {"sequence": "TTTCAGTTTC", "switch fluorescence ratio": "1.02 ± 0.043"}, {"sequence": "TTTCATACCT", "switch fluorescence ratio": "1.23 ± 0.14"}, {"sequence": "TTTCATAGCA", "switch fluorescence ratio": "1.283 ± 0.012"}, {"sequence": "TTTCATATGA", "switch fluorescence ratio": "1 ± 0.0082"}, {"sequence": "TTTCATCGCC", "switch fluorescence ratio": "1.01 ± 0.012"}, {"sequence": "TTTCATCTTG", "switch fluorescence ratio": "0.9706 ± 0.0034"}, {"sequence": "TTTCATGAAT", "switch fluorescence ratio": "0.987 ± 0.0027"}, {"sequence": "TTTCATGGTG", "switch fluorescence ratio": "1.0484 ± 0.00021"}, {"sequence": "TTTCATGTTA", "switch fluorescence ratio": "0.987 ± 0.0084"}, {"sequence": "TTTCATTAGT", "switch fluorescence ratio": "0.99 ± 0.045"}, {"sequence": "TTTCATTATT", "switch fluorescence ratio": "1.02 ± 0.02"}, {"sequence": "TTTCATTCTT", "switch fluorescence ratio": "1 ± 0.033"}, {"sequence": "TTTCATTGGC", "switch fluorescence ratio": "0.986 ± 0.028"}, {"sequence": "TTTCATTTGT", "switch fluorescence ratio": "1.02 ± 0.075"}, {"sequence": "TTTCCAATCT", "switch fluorescence ratio": "1.08 ± 0.13"}, {"sequence": "TTTCCATATT", "switch fluorescence ratio": "0.984 ± 0.019"}, {"sequence": "TTTCCCATTT", "switch fluorescence ratio": "1 ± 0.064"}, {"sequence": "TTTCCCGGGT", "switch fluorescence ratio": "1.0123 ± 0.00051"}, {"sequence": "TTTCCCTCGT", "switch fluorescence ratio": "1.16 ± 0.17"}, {"sequence": "TTTCCGACGT", "switch fluorescence ratio": "1.46 ± 0.62"}, {"sequence": "TTTCCGGGTG", "switch fluorescence ratio": "2.5 ± 1.1"}, {"sequence": "TTTCCGTGAG", "switch fluorescence ratio": "1.63 ± 0.98"}, {"sequence": "TTTCCTAGTT", "switch fluorescence ratio": "1.032 ± 0.0028"}, {"sequence": "TTTCCTGTGT", "switch fluorescence ratio": "1.01 ± 0.017"}, {"sequence": "TTTCCTTTGT", "switch fluorescence ratio": "1.01 ± 0.049"}, {"sequence": "TTTCCTTTT", "switch fluorescence ratio": "1.014 ± 0.0083"}, {"sequence": "TTTCGAACAT", "switch fluorescence ratio": "1.03 ± 0.068"}, {"sequence": "TTTCGACCGA", "switch fluorescence ratio": "1.03 ± 0.033"}, {"sequence": "TTTCGACCTG", "switch fluorescence ratio": "0.9871 ± 0.0046"}, {"sequence": "TTTCGACGCT", "switch fluorescence ratio": "2.18 ± 0.85"}, {"sequence": "TTTCGAGAAC", "switch fluorescence ratio": "0.9873 ± 0.0066"}, {"sequence": "TTTCGAGGAT", "switch fluorescence ratio": "1.006 ± 0.0044"}, {"sequence": "TTTCGAGGGA", "switch fluorescence ratio": "1 ± 0.025"}, {"sequence": "TTTCGATTAC", "switch fluorescence ratio": "1.07 ± 0.018"}]}]}
